In article PMC9884259 (The Journal of Membrane Biology, 2022):

B1: Streptolysin O (SLO), wildtype, residues L78-K571, His-tagged (natural protein)
chain: LAPKEMPLESAEKEEKKSEDKKKSEEDHTEEINDKIYSLNYNELEVLAKNGETIENFVPKEGVKKADKFIVIERKKKNINTTPVDISIIDSVTDRTYPAALQLANKGFTENKPDAVVTKRNPQKIHIDLPGMGDKATVEVNDPTYANVSTAIDNLVNQWHDNYSGGNTLPARTQYTESMVYSKSQIEAALNVNSKILDGTLGIDFKSISKGEKKVMIAAYKQIFYTVSANLPNNPADVFDKSVTFKELQRKGVSNEAPPLFVSNVAYGRTVFVKLETSSKSNDVEAAFSAALKGTDVKTNGKYSDILENSSFTAVVLGGDAAEHNKVVTKDFDVIRNVIKDNATFSRKNPAYPISYTSVFLKNNKIAGVNNRTEYVETTSTEYTSGKINLSHQGAYVAQYEILWDEINYDDKGKEVITKRRWDNNWYSKTSPFSTVIPLGANSRNIRIMARECTGLAWEWWRKVIDERDVKLSKEINVNISGSTLSPYGSITYK

Assays:
high-speed AFM = molecular target: the molecule itself; test: high-speed AFM
[1] = molecular target: B1; test: high-speed AFM; settings: both partners purified

Row | Binder | binding result (high-speed AFM) | binding result [1]
1 | B1 | binds | 
2 | SLO (C/A)-SS mutant ([change], [change], [change]), residues L78-K571, His-tagged (natural protein) LAPKEMPLESAEKEEKKSEDKKKSEEDHTEEINDKIYSLNYNELEVLAKNCETIENFVPKEGVKKADKFIVIERKKKNINTTPVDISIIDSVTDRTYPAALQLANKGFTENKPDAVVTKRNPQKIHIDLPGMGDKATVEVNDPTYANVSTAIDNLVNQWHDNYSGGNTLPARTQYTESMVYSKCQIEAALNVNSKILDGTLGIDFKSISKGEKKVMIAAYKQIFYTVSANLPNNPADVFDKSVTFKELQRKGVSNEAPPLFVSNVAYGRTVFVKLETSSKSNDVEAAFSAALKGTDVKTNGKYSDILENSSFTAVVLGGDAAEHNKVVTKDFDVIRNVIKDNATFSRKNPAYPISYTSVFLKNNKIAGVNNRTEYVETTSTEYTSGKINLSHQGAYVAQYEILWDEINYDDKGKEVITKRRWDNNWYSKTSPFSTVIPLGANSRNIRIMAREATGLAWEWWRKVIDERDVKLSKEINVNISGSTLSPYGSITYK | binds | binds
